The values below come from patent US20020049303A1.

This assay addresses recombinant memapsin 2 (M2pd), auto-activated from pro-M2pd at pH 4.0 (human) (UniProt P56817). The experiment in a line: cell-based or functional assay.

Sequence of recombinant memapsin 2 (M2pd), auto-activated from pro-M2pd at pH 4.0 (human) (P56817 25-419 limits assumed): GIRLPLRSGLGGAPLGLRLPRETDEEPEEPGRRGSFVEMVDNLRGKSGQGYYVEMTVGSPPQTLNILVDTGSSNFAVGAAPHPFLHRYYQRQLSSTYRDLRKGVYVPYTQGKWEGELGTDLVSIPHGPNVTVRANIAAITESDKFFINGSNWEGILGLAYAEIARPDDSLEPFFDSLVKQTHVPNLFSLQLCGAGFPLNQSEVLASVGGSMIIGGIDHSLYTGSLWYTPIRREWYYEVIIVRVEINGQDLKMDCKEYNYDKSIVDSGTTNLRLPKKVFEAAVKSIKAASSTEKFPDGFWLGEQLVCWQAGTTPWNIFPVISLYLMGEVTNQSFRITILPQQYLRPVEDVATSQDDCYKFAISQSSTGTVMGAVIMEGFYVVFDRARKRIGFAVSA

Pepstatin A (peptide): the inhibition of M2pd activity (IC50) was 300 µM.
